In US20120317681A1 one finds IC50 data, which are given here for two substances.

Test [1] addresses Cry1Ca receptor protein(s) / binding site on Brush Border Membrane Vesicles (BBMV's) from Spodoptera frugiperda (Spodoptera frugiperda). In words: heterologous competition; displacement of 0.5 nM 125I-labeled Cry1Ca core toxin from S. frugiperda BBMV (150 ug/mL).
Test [2] has the same target. In words: homologous competition; displacement of 0.5 nM 125I-labeled Cry1Ca core toxin from S. frugiperda BBMV (150 ug/mL).

As a reminder, the IC50 is the concentration that inhibits the measured activity by half. The low end stands for greater potency, the high end for weaker potency. In turn, “Cry1Fa core toxin protein (non-labeled, trypsin-activated) (from UniProt Q03746 28-605) (ligand)” displayed an IC50 in test [1] above 300 nM.
For the substance “Cry1Ca core toxin protein (non-radiolabeled, trypsin-activated) (from UniProt P0A376 28-618) (ligand)”, the IC50 in test [2] came out at 5 nM.
